Legend:
[1] = biological target: T1, human NgR-Fc fusion protein (R&D Systems) (human, UniProt Q9BZR6 27-447, limits assumed); test: ELISA, Fc fusion captured via goat anti-human IgG Fc, Fab detected with AP-conjugated secondary and AttoPhos
T1 construct: Commercial protein; also called captured human NgR-Fc; not shown: Fc part of the commercial fusion protein; not described
T1 sequence (looked up): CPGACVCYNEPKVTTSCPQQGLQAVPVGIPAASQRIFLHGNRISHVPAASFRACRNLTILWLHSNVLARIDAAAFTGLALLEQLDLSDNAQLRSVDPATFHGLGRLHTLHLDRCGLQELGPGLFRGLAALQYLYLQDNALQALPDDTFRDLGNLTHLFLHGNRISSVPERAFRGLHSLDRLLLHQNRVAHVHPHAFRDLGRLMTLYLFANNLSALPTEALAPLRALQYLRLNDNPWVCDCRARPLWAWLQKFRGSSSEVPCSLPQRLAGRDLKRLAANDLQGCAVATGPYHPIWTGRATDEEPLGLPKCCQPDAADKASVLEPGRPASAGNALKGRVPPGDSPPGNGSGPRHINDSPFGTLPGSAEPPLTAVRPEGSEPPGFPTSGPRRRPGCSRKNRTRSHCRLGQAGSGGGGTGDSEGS

[2] = biological target: T2, human LINGO-1-Fc fusion protein (natleader-hsLINGO-1-Fc) (human, UniProt Q96FE5 42-556); test: as above
T2 construct: also called human recombinant LINGO-1-Fc; captured human LINGO-1-Fc; not shown: protein lette
T2 sequence: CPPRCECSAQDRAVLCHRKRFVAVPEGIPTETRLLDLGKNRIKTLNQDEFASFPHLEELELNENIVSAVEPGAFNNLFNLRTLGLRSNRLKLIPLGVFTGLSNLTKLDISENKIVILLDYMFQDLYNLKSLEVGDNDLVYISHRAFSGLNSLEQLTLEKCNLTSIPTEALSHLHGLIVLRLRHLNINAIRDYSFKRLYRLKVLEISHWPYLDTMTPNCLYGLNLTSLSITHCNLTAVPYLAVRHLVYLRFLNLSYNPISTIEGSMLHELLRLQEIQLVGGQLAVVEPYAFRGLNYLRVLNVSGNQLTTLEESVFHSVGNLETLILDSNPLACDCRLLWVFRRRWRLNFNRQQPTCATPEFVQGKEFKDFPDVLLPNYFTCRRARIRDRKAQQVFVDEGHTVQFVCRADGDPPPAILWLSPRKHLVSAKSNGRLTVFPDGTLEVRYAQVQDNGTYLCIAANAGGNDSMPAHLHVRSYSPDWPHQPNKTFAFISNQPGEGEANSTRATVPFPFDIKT

[3] = biological target: T3, human LINGO-2 expressed on CHO-K1 cells (CHO-K1-hLINGO-2) (human, UniProt Q7L985 26-606); test: apparent KD, FACS saturation binding on CHO-K1-hLINGO-2 cells, Fab format
T3 construct: range 26-606; not shown: 2 amino acid residue linker
T3 sequence (looked up): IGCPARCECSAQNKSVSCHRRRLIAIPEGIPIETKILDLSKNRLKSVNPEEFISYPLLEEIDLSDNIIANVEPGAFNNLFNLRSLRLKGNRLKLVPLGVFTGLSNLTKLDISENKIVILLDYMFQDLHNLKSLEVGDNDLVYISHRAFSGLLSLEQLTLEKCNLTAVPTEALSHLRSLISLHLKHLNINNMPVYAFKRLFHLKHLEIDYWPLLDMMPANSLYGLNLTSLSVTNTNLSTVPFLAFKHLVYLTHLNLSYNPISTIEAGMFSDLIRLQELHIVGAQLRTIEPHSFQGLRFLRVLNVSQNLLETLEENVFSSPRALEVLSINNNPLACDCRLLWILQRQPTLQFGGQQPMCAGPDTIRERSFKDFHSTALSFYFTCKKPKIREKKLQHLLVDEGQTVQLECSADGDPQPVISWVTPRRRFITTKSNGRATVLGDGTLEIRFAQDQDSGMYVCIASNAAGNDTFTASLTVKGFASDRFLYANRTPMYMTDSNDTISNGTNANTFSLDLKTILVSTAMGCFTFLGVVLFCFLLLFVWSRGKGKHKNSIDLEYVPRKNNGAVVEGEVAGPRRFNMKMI

Unrelated Fc = test: ELISA, Fc fusion captured via goat anti-human IgG Fc, Fab detected with AP-conjugated secondary and AttoPhos
[4] = biological target: T4, cynomolgus monkey LINGO-1 expressed on CHO-K1 cells (CHO-K1-cmLINGO-1) (cynomolgus monkey, UniProt Q9N008 34-614); test: apparent KD, FACS saturation binding on CHO-K1-cmLINGO-1 cells, Fab format
T4 construct: range 34-614; also called Cynomolgus LINGO-1; not shown: 2 amino acid residue linker
T4 sequence (looked up): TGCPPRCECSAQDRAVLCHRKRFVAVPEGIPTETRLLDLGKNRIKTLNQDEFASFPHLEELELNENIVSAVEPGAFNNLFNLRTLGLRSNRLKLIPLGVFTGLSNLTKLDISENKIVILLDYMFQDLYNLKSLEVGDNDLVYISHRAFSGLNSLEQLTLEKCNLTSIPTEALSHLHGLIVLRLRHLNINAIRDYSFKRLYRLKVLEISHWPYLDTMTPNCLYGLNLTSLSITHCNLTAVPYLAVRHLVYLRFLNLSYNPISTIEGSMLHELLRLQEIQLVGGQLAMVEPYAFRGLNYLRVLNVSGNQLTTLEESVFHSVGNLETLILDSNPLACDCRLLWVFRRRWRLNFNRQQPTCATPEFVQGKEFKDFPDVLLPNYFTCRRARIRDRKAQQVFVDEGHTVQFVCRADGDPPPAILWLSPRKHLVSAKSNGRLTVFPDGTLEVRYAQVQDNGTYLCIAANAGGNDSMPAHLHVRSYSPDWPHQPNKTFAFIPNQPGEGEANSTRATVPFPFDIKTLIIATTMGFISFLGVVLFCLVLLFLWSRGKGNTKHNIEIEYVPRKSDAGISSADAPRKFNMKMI
Procedure: Cell based affinity of anti-LINGO-1 specific antibodies is determined by FACS saturation binding experiments. […] Otherwise the staining procedure is done identical to the FACS staining procedure described above.
In detail, CHO-K1-hLINGO-1, CHO-K1-cmLINGO-1 or CHO-K1-rLINGO-1 are detached from culture flasks by versene, washed with FACS buffer and resuspended in FACS buffer. Purified anti-LINGO-1 Fabs are serially diluted in FACS buffer and spread into round bottom 96-well microtiter plates (NUNC™, Wiesbaden, Germany). For each concentration, duplicate wells are incubated with 1.25×10⁴ cells for 30-60 min on ice in a total volume of 100 μl.

relative fluorescence units (RFU) [1]: 7 RFU
relative fluorescence units (RFU) [2]: 113 RFU
Kd [3]: 1.21 nM
relative fluorescence units (RFU) (Unrelated Fc): 6 RFU
Kd [4]: 0.26 nM
B1: anti-LINGO-1 Fab 4785 (Fab, V domains shown)
VH: QVQLQQSGPGLVKPSQTLSLTCAISGDSVSDNSAAWSWIRQSPGRGLEWLGLIYLRSKWDNDYAVSVKSRITINPDTSKNQFSLQLNSVTPEDTAVYYCARTGRADEFDVWGQGTLVTVSS
VL: DIVLTQPPSVSGAPGQRVTISCSGSSSNIGNNYVSWYQQLPGTAPKLLISRNSKRPSGVPDRFSGSKSGTSASLAITGLQSEDEADYYCSTYDTFSIVFGGGTKLTVLG
